Measurements from US20230203158A1 (FLAGSHIP PIONEERING INNOVATIONS VII, published 2023).

Assays:
[1] = target: T1, mouse CDH17 (NCBI accession NP 062727.1) with a c-Myc epitope tag at the C terminus, transiently expressed in … (mouse, UniProt Q9R100 26-827); experiment: flow cytometry on RAW 264.7 cells transiently expressing mouse CDH17
T1 construct: whole, on cells; also called cadherin 17
T1 sequence (looked up): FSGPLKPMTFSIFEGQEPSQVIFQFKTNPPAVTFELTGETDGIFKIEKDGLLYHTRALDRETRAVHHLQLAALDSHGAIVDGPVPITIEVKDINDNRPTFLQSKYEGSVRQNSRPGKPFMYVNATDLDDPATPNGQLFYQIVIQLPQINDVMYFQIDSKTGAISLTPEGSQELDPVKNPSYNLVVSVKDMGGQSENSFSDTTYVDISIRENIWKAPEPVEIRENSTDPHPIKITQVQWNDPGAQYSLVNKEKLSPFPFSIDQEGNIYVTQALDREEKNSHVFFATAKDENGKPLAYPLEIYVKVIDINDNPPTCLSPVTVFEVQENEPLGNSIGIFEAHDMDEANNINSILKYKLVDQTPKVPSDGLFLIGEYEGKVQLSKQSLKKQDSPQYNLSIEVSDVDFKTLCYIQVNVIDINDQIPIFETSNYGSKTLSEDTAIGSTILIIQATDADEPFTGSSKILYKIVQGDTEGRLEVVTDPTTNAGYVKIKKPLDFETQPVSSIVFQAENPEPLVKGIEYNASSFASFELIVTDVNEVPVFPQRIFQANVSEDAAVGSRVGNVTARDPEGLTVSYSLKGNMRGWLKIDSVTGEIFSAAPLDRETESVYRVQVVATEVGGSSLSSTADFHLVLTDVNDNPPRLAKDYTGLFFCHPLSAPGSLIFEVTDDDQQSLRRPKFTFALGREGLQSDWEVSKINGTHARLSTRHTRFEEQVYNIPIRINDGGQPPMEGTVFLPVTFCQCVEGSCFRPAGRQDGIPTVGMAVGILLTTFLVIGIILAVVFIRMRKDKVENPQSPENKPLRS
Description: To confirm binding activity and specificity, mouse CDH17 (NCBI accession NP 062727.1) with a c-Myc epitope tag at the protein C terminus was transiently expressed in RAW 264.7 cells using LIPOFECTAMINE™ 3000 (ThermoFisher Scientific) according to the manufacturer's protocol.

[2] = target: T2, Murine DSG1 (NCBI accession NP_034209.2) with a c-Myc epitope tag at the C terminus, transiently expressed in … (mouse, UniProt Q61495 50-1057); experiment: flow cytometry on RAW 264.7 cells transiently expressing murine DSG1
T2 construct: whole, on cells; also called mouse DSG1; murine desmoglein-1
T2 sequence (looked up): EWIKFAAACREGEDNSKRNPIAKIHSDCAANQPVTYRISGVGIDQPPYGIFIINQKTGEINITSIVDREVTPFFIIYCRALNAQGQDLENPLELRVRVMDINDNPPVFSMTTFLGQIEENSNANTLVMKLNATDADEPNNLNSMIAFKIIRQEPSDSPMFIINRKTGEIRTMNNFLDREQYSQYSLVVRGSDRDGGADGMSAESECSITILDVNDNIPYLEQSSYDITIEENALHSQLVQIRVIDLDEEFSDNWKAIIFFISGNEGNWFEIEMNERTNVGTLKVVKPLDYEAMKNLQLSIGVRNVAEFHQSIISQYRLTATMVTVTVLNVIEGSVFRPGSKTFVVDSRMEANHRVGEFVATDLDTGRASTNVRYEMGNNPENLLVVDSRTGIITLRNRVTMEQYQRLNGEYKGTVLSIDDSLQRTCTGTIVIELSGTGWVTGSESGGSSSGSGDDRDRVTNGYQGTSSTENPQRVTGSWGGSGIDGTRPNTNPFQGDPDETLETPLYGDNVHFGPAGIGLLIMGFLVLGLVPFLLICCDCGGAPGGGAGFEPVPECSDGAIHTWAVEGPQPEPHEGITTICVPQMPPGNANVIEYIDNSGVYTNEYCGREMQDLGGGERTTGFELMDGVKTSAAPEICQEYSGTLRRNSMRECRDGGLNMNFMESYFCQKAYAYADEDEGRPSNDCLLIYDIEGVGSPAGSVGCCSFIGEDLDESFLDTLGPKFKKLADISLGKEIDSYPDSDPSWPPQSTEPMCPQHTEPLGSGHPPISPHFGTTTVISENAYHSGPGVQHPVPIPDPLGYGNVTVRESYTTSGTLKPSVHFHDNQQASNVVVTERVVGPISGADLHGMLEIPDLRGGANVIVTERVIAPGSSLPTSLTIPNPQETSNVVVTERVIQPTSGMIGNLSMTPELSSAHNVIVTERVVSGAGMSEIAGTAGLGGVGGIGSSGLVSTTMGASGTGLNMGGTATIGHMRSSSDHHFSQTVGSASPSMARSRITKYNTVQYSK
Description: Murine DSG1 (NCBI accession NP_034209.2) with a c-Myc epitope tag at the protein C terminus was transiently expressed in RAW 264.7 cells using LIPOFECTAMINE™ 3000 (ThermoFisher Scientific) according to the manufacturer's protocol.

[3] = target: IL-10 receptor of HEK-BLUE IL-10 cells (the cells express all the components of the IL-10 signaling pathway); experiment: cell-based or functional assay
[4] = target: T3, recombinant His-tagged human IL-10Ra (Creative Biomart) (human, UniProt Q13651 22-235); experiment: ELISA, His-tagged human IL-10Ra coated at 1 µg/mL
T3 construct: also called IL-10 receptor alpha; not shown: His tag
T3 sequence (looked up): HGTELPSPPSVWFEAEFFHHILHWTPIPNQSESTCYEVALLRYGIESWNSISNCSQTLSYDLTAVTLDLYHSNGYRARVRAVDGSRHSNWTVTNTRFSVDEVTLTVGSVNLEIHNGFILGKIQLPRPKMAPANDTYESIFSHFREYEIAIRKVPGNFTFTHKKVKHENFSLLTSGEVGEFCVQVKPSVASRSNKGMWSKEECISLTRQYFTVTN
Description: To test the binding of the IL-10/anti-DSG1 ANDbodies to IL-10 receptor alpha (IL-10Ra) by ELISA, recombinant His-tagged human IL-10Ra (Creative Biomart) was coated on NUNC-IMMUNO™ MAXISORP™ ELISA plates at 1 μg/mL concentration overnight. The next day, coated antigen was removed and the wells were blocked with 1% IgG-free BSA followed by incubation with 11 three-fold serially diluted anti-IL-10/anti-DSG1 ANDbodies (as provided above) with a starting concentration of 30 μg/mL. Bound antibody was detected with peroxidase-conjugated anti-human IgG antibodies with TMB and acid stop reagents.

B1: PRO061 (anti-CDH17 antibody MAB8524 on a human IgG1 LALA-PG backbone, kappa light chain) (antibody, V domains shown)
VH: QSLEESGGRLVTPGTPLTLTCTVSGFSLTSYDMNWVRQAPGKGLEWIGVVRGSGRTYYASWAKGRFTIARTSSTTVDLKMTSLTTGDTATYFCARGDANNNYYEFDIWGPGTLVTVSS
VL: QDMTQTPSPVSAAVGGTVTINCQSSQSVYGDAWLSWFQQKPGQPPKLLIYSASTLASGVPSRFKGSGSGTQFTLTISDLESDDAATYYCAGGYDGINDIRAFGGGTEVVVKR
binding result [1]: binds

B2: PRO004 (anti-DSG1 antibody 3-07/1e on a human IgG1 LALA-PG backbone, lambda light chain) (antibody, V domains shown)
VH: QVQLVQSGGGLVQPGGSLRVSCAASGFTSNIFWMSWVRQAPGKGLEWVANIDEDGSEKNYVDSVKGRFTISRDNAKNSLYLQMNSLRAEDTAVYYCARESFYYGSGTYFDFWGQGTLVTVSS
VL: ELVVTQPPSVSGAPGQRVTISCTGSSSNIGAGYDVHWYQQLPGTAPKLLIYGNKNRPSGVPDRFSGSKSGTSASLAITGLRAEDEADYYCQSFDSSLGWVFGGGTQLTVLG
notes: human IgG1 with L234A, L235A, P329G
binding result [2]: binds

B3: IL-10 Fc (Creative Biomart IL10-326H), recombinant human IL-10 fused to a human Fc domain (Fc fusion, UniProt P22301 19-178, looked up)
chain: SPGQGTQSENSCTHFPGNLPNMLRDLRDAFSRVKTFFQMKDQLDNLLLKESLLEDFKGYLGCQALSEMIQFYLEEVMPQAENQDPDIKAHVNSLGENLKTLRLRLRRCHRFLPCENKSKAVEQVKNAFNKLQEKGIYKAMSEFDIFINYIEAYMTMKIRN
notes: also called positive control IL-10 Fc; hIL-10 Fc fusion; not shown: human Fc domain and any linker of the bought product
EC50 (pM), HEK-BLUE IL-10 signaling assay (SEAP) [3]: 50 pM | binding result [4]: binds
